Source: doi:10.1101/2025.02.21.639491 (bioRxiv, 2025)
Substitutions are numbered along the chain they refer to. Names and notes keep the numbering of the source.

Target: the molecule itself
Experiment: mass photometry

B1: wild-type mouse PADI6 (peptidyl arginine deiminase 6) (natural protein, UniProt Q8K3V4 1-682, looked up)
chain: MSFQNSLSLSLVNPTHALCMVGMEITLDISKCAPDKCKSFTIRGSPRILIHISSSVIAGKEDTVVWRSMNHPTVALVRMVAPSPTVDEDKVLVSYFCPDQEVPTATAVLFLTGIEISLEADIYRDGQLDMPSDKQAKKKWMWGMNGWGAILLVNCSPNAVGQPDEQSFQEGPREIQNLSQMNVTVEGPTSILQNYQLILHTSEEEAKKTRVYWSQRGSSAYELVVGPNKPVYLLPTFENRRKEAFYVEATEFPSPSFSGLISLSLSLVEKAHDECIPEIPLYKDTVMFRVAPYIFMPSTQMPLEVYLCRELQLQGFVDSVTKLSEKSKVQVVKVYEDPNRQSKWLQDEMAFCYTQAPHKTVSLILDTPRVSKLEDFPMKYTLTPGSGYLIRQTEDHRVASLDSIGNLMVSPPVKAQGKDYPLGRVLIGGSFYPSSEGRDMNKGLREFVYAQQVQAPVELFSDWLMTGHMDQFMCFVPTNDKNNDQKDFRLLLASPSACFELFEQKQKEGYGNVTLFEDIGAEQLLSNGRESKTISQILADKSFREQNTYVEKCISLNRTLLKTELGLEDKDIILIPQLFCLEQLTNVPSNQQSTKLFARPYFPDMLQIIVLGKNLGIPKPFGPKINGTCCLEEKVCGLLEPLGLKCTFIDDFDCYLANIGDVCASAIINRVPFAFKWWKMTP
stoichiometry N: 2

B2: mouse PADI6 C663A (natural protein, UniProt Q8K3V4 1-682, looked up)
chain: B1 chain with C663A
stoichiometry N: 2
